Measured values taken from publication PMC5529448.

Biological target: P02689
Assay: dynamic light scattering; triplicates at +25 °C; 0.6–0.9 mg/ml protein; 0.3 M NaCl, 20 mM HEPES pH 7.5; proteins stored on ice for 24 h after SEC
Conditions: other: dynamic light scattering

B1: human myelin protein P2 T51P (protein)
chain: MSNKFLGTWKLVSSENFDDYMKALGVGLATRKLGNLAKPTVIISKKGDIIPIRTESTFKNTEISFKLGQEFEETTADNRKTKSIVTLQRGSLNQVQRWDGKETTIKRKLVNGKMVAECKMKGVVCTRIYEKV
Monomeric (%): 98.3%
